In the experiment the target is T1, 6xHis-tagged Mrs6p, wild-type (S. cerevisiae, UniProt P32864 1-603).
T1 sequence: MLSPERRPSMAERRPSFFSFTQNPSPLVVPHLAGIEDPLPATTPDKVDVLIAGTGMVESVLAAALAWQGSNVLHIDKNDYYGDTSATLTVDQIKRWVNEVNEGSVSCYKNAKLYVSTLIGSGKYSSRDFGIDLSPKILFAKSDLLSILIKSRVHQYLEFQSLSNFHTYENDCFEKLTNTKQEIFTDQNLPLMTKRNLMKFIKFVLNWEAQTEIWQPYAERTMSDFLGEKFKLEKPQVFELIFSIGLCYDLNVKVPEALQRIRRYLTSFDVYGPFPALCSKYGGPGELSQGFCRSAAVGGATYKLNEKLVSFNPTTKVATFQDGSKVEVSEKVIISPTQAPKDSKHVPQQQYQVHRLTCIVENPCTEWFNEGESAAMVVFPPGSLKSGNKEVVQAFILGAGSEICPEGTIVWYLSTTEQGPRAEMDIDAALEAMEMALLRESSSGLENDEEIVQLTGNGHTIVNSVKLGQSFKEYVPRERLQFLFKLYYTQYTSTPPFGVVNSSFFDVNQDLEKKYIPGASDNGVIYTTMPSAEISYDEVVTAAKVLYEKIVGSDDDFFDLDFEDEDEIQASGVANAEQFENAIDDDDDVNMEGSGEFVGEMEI
The experiment in a line: other fluorescence titration.

B1: prenylated His6-tagged Rab3A (natural protein)
chain: MASATDSRYGQKESSDQNFDYMFKILIIGNSSVGKTSFLFRYADDSFTPAFVSTVGIDFKVKTIYRNDKRIKLQIWDTAGQERYRTITTAYYRGAMGFILMYDITNEESFNAVQDWSTQIKTYSWDNAQVLLVGNKCDMEDERVVSSERGRQLADHLGFEFFEASAKDNINVKQTFERLVDVICEKMSESLDTADPAVTGAKQGPQLSDQQVPPHQDCAC
modifications: prenylated (residues not stated)
The Kd is the equilibrium constant for the complex coming apart. Read a high Kd as a looser complex. As to B1, the Kd is 320 nM.

For the origin of these results see publication PMC2185574 (The Journal of Cell Biology, 2000).
